The record followed here is patent US20260275344.

The subject of this series is PiggyBac transposase. The series is described as follows: cell_activity.

On to ITR-EF1a-GFP-ITR cssDNA, for which the activity was 39.3 % GFP+ cells (K562 day 21, donor alone ~2.37%) and 7.54 % GFP+ cells (primary human T cells day 14, donor alone ~0.16%).
